B1: CB6-IgA2 (monomeric chimeric IgA2 of monoclonal antibody CB6) (antibody)
heavy: ASEVQLVESGGGLVQPGGSLRLSCAASGFTVSSNYMSWVRQAPGKGLEWVSVIYSGGSTFYADSVKGRFTISRDNSMNTLFLQMNSLRAEDTAVYYCARVLPMYGDYLDYWGQGTLVTVSSASTKGPSVFPLAPSSKSTSGASPTSPKVFPLSLDSTPQDGNVVVACLVQGFFPQEPLSVTWSESGQNVTARNFPPSQDASGDLYTTSSQLTLPATQCPDGKSVTCHVKHYTNPSQDVTVPCPVPPPPPCCHPRLSLHRPALEDLLLGSEANLTCTLTGLRDASGATFTWTPSSGKSAVQGPPERDLCGCYSVSSVLPGCAQPWNHGETFTCTAAHPELKTPLTANITKSGNTFRPEVHLLPPPSEELALNELVTLTCLARGFSPKDVLVRWLQGSQELPREKYLTWASRQEPSQGTTTFAVTSILRVAAEDWKKGDTFSCMVGHEALPLAFTQKTIDRLAGKPTHVNVSVVMAEVDGTCY
light: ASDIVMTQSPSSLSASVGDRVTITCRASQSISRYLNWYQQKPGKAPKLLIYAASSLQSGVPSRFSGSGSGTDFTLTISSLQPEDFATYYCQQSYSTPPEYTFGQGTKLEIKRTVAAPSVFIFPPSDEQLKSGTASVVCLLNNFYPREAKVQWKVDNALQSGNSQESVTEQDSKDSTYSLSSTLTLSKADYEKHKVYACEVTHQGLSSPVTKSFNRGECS
notes: also called monomeric CB6-IgA2
B2: chimeric secretory component (CSC) of the polymeric immunoglobulin receptor (receptor)
chain: QSSLLGPSSIFGPGEVNVLEGDSVSITCYYPTTSVTRHSRKFWCREEESGRCVTLASTGYTSQEYSGRGKLTDFPDKGEFVVTVDQLTQNDSGSYKCGVGVNGRGLDFGVNVLVSQKPELLNDTKVYTVDLGRTVTINCPFKTENAQKRKSLYKQIGLYPVLVIDSSGYVNPNYTGRIRLDIQGTGQLLFSVVINQLRLSDAGQYLCQAGDDSNSNKKNADLQVLKPEPELVYEDLRGSVTFHCALGPEVANVAKFLCRQSSGENCDVVVNTLGKRAPAFEGRILLNPQDKDGSFSVVITGLRKEDAGRYLCGAHSDGQLQEGSPIQAWQLFVNEESTIPRSPTVVKGVAGGSVAVLCPYNRKESKSIKYWCLWEGAQNGRCPLLVDSEGWVKAQYEGRLSLLEEPGNGTFTVILNQLTSRDAGFYWCLTNGDTLWRTTVEIKIIEGEPNLKVPGNVTAVLGETLKVPCHFPCKFSSYEKYWCKWNNTGCQALPSQDEGPSKAFVNCDENSRLVSLTLNLVTRADEGWYWCGVKQGHFYGETAAVYVAVEERKAAGSRDVSLAKADAAPDEKVLDSGFREIENKAIQDPRLFAEEKAVADTRDQADGSRASVDSGSSEEQGGSSRR
notes: also called R/HpIgR; chimeric pIgR; not shown: C-terminal 6 histidine tag

What was measured:
[1] = molecular target: B2; experiment: lateral flow assay, CSC test line, detection with RBD-biotin/streptavidin gold
purified IgG = experiment: pull-down on CSC beads, reducing SDS-PAGE, bands quantitated
purified IgM = molecular target: T1, purified IgM; experiment: as above
T1 construct: also called pentameric IgM

B1
binding result [1]: no binding (tested: 100 µg/ml)

B2
percent bound (purified IgG): ~20%
percent bound (purified IgM): ~20%
